According to PMC12414692:

Assays:
[1] = molecular target: hNaV1.5 (human voltage-activated sodium channel alpha subunit NaV1.5, wild type) (human) (UniProt Q14524)
[2] = molecular target: hNaV1.5 ΔKPQ (deletion of lysine, proline and glutamine at positions 1505–1507) (human) (UniProt Q14524)

Work on KKLITFILKKTREK [β4 peptide (derived from Homo sapiens sodium channel β4 subunit)] yielded a current availability at pulse III (0 mV) after conditioning pulses from −20 to 90 mV and 5 ms at −100 mV, 30 μM β4 peptide in the pipette [1] of 1.5 fold and a normalized INaR peak current, whole-cell voltage clamp of HEK293T cells, 30 μM β4 peptide in the pipette, against wild-type hNaV1.5 with the peptide (fold (against wild type with β4 peptide)) [2] of 2.
